Assay results published in the RNAGym collection of RNA variant scans (doi:10.1073/pnas.2313332121).
Variants at the floor of the assay were thinned out.

B1: TPR 5TU (parent)
chain: GGAUCUUCUCGAUCUAACAAAAAAGACAAAUCUGCCACAAAGCUUGAGAGCAUCUUCGGAUGCAGAGGCGGCAGCCUUCGGUGGCGCGAUAGCGCCAACGUUCUCAACUAUGACACGCAAAACGCGUGCUCCGUUGAAUGGAGUUUAUCAUG

Variants of: B1
Assay: polymerase ribozyme fitness, log enrichment relative to wild type (log ratio); higher = more active; in vitro selection for triplet polymerase activity
Procedure, shortened: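 Frozen incubation at −7 °C formed the core of a single, triplicate in vitro selection round applied to PCR-built, transcribed mutant libraries of each subunit of a heterodimeric triplet polymerase ribozyme. Extended constructs were gel-excised, captured with streptavidin beads and amplified by RT-PCR, and input and output libraries were Illumina-sequenced with a filter of ≥10 input reads and ≥1 read per output. Fitness is the logarithm of genotype enrichment relative to wild-type enrichment, with inverse-variance-weighted replicate averaging, and the logarithm is base 2.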

Point of comparison: GGAUCUUCUCGAUCUACCAAAAAACACAAGUCUGCCACAAAGCUAGAGCGCAUCUUCGGAUGCAGAGGCGGCAGCCUUCGGUGGCGCGAUAGCGCCAACGUUCUCAACUAUGACACGCAAAACUCGUGCUCCGUUGAAUGGAGUUUAUCAUG [A17C G25C A30G U45A A49C G124U], “polymerase ribozyme fitness (log ratio)” value -4.16. Against it:
- GGAUCUUCUCGAUCUACCAAAAAAGACAAAGCUGCCACAAAGCUUGAGAGCAUCUUCGGAUGCAGAGGCGGCAGCAUUCGGUGGCGCGAUAGCGGCAACGUUCUCAACUAUGACACGCAAAACGCGUGCUCCGUUGAAUGGAGUUUAUCAUG [A17C U31G C76A C95G] — lower, ≤ -4.2
- GGAUCUUCUCGAUCUAGCAAAAAAGACAAAUCUGCCACUAAGCUUGAGAGCAUGUUCGGAUGCCGAGGCGGCAGCCUUCGGUGGCGCGCGAGCGCCAACGUUCUCAACUAUGACACGCAAAUCGCGUGCUCCGUUGAACGGAGAUUAUCAUG [A17G A39U C54G A64C A89C U90G A122U U139C U144A] — lower, ≤ -4.2
- GGAUCUUCUCGAUCUACCAAAAAAGACAAAUCUGCCACAAAGCUUGAGAGCAUCUUCGGAUGCAGAGGCGGCAGCCUUCGGUGGCGCGAUAGCGCCAACGUUCUUAACUAUGACACGCAAAACGCGUGCUCCGUUGAAUGGAGUUUAUCAUG [A17C C105U] — higher, 1.03
- GGAUCUUCUCGAUCUAGCAAAAUAGACAAAUCUGCCACAAAGCUUGAGAGCAUCUUCGGAUGCAGAGGCGGCAGCCUUGGGUGGCGCGAUAGCGCCAACGUUCUCAACUAUGACACGCAAAACGCGUGCUCCGUUGAAUGGAGUUUAUCAUG [A17G A23U C79G] — lower, ≤ -4.2
- GGAUCUUCUCGAUCUAGCAAAAAAGACAAUUCUGCCACAAAGCUUGAGAGCAUCUUCGGAUGCAGAGGCGGCAGCCUUCGGUAGCGCGAUAGCGCCAACGCUCUCAACUAUGACACGCAAAACGCGUUCUCCGUUGAAUGGAGUUUAUCAUG [A17G A30U G83A U101C G128U] — lower, ≤ -4.2
- GGAUCUUCUCGAUCUACCAAAAAAGACAAAUCUGCCACAAAGCUUGAGAGCAUCUUCGGAUGCAGAGGCGGCAGCCUUCGGUGGCGCGAUAGCGCCAACGUUCUCAACUAUGACAGGCAAAACGCGUGCUCCGUUGAGUGGAGAUUAUCAUG [A17C C116G A138G U144A] — lower, ≤ -4.2
- GGAUCUUCUCGAUCUAGCAAUAAAGACAAAUCUGCCACAAAGCUUGAGCGCAUCUUCGCAUGCAGAGGCGGCAUCCUUCGGUGGGGCGAUAGCGCCAACGUUCUCAACUAUGACAUGCAAAACGCGUGCUCCGAUGAAUGGAGUUUAUCAUG [A17G A21U A49C G59C G74U C85G C116U U134A] — lower, ≤ -4.2
- GGAUCUUCUCGAUCUAGCAAAAAAGACAAAUCUGCCACGAAGCUUGAGAGCAUCUUCGGAUGCAGAGGCGGCAGCCUUGGGUGGCGCGUUAGCGCGAACGUUCUCAACUAUGACACGCAAAACGCGUGCUCCGUUGAAUGGAGUUUAUCAUG [A17G A39G C79G A89U C96G] — within 0.2 log units, -4.19
- GGAUCUUCUCGAUCUAGCAAUAAAGACAAAUCUGCCACAAAGCUUGAGCGCAUCUUCGCAUGCAGAGGCGGCAUCCUUCGGUGGGGCGAUAGCGCCAACGUUCUCAACUAUGACACGCAAAACGCGUGCUCCGUUGAAUGGAGUUUAUCAUG [A17G A21U A49C G59C G74U C85G] — lower, ≤ -4.2
- GGAUCUUCUCGAUCUAGCAUAAAAGACAAAUCUGCCACAAACCUUGAGCGCUUCUUCGGAUGCAGAGGCGGCAGCCUUCGGUGGCGCGAUAGCGCCAACGUUCUCAACUAUGACACGCAAAACGCGUGCUCCGUUGAAUGGAGUUUAACAUG [A17G A20U G42C A49C A52U U148A] — lower, ≤ -4.2
- GGAUCUUCUCGAUCUACCAAAAAAGACAAAUCUGCCACAAAGCUUGAGAGCAUCUACGGAUGCAGAGGCGGCAGCCUUCGGUGGCGCGAUAGCGCCAACGUUCUCAACUAUGACACGCAAAACGCGUGCUCCGUUGAAUGGAGUUUAUCAUG [A17C U56A] — higher, 0.36
- GGAUCUUCUCGAUCUAGCAAAAAAGACAAAUCUGCCACGAAGCUUGAGAGCAUCUUAGGAUGCAGAGGCGGCAGCCUUCGGUGGCGCGAUAGCGCAAACGUUCUCAACUAUGACACGCAAAACGCGUGCUCCGUUGAAUGGAGUUUAUCAUG [A17G A39G C57A C96A] — higher, -2
- GGAUCUUCUCGAUCUACCAAAAAAGACAAAUCUGCCACAAAGCUUGAGAGCAUCUUCGGAUGCAGAGGCGGCAGCCUUCGGUGGCGCGAUAGCACCAACGUUCUCAACUAUGACACGCAAUACGCGUGCUCCGUUGAAUGGAGUAUACCAUG [A17C G94A A121U U145A U148C] — higher, -1.99
- GGAUCUUCUCGAUCUACCAAAAAAGACAAAUCUGCCACAAAGCUUGAGAGCAACUUCGGAUGCAGAGGCGGCUGCAUUCGGUGGGGCGAUAGCGCCAACGUUCUCAAAUAUGACACGCAAAACGCGUGCUCCGUUGAAUGGAGUUAAUCAUG [A17C U53A A73U C76A C85G C108A U146A] — lower, ≤ -4.2
- GGAUCUUCUCGAUCUAGCAUAAAAGACAAAUCUGCCACAAAGCUUGAGAGCAUCUUCGGAUGCAGAGGCGGCAGCCUUCGGUGACGCGAUAGCGCCUACGUUCUCAACUAUGACCCGCAAAACGCGUGCUCCGUUGAAUGGAGUUUAUCAUG [A17G A20U G84A A97U A115C] — higher, -3.45
- GGAUCUUCUCGAUCUACCAAAAAAGACAAAGCUGCCACAAAGCUUGAAAGCAACUUCGGAUGCAGAGGCGGCAGCCUUCCGUGGUGCGAUAGCGCCAACGUUCUCAACUAUGACACGCAAAACGCGUGCUCCUUUGAAUUGUGUUUAUCAUU [A17C U31G G48A U53A G80C C85U G133U G140U A142U G152U] — lower, ≤ -4.2
- GGAUCUUCUCGAUCUAGCAUAAAAGACAAAUCUGCCACAAAGCUUGAGAGCCUCUUCGGAUGCAGAGGCGGCAGCCUUCGGUGGCGCGGUAGCGACAACGUUCUCUACUAUGACACGCAAAACGCGUGCUCCGAUGAAUGGAGUUUAUCAUG [A17G A20U A52C A89G C95A A106U U134A] — lower, ≤ -4.2
- GGAUCUUCUCGAUCUACCAAAAAAGACAAAUCGGCCACAAAGCUUGAGAGCAUCUUCGGAUGCAGAGGCGACAGCCUUCGGUGGUGCUAUAGCGCCAACGUUCUCAACUACGACACGCAAAACGCGUGCUCCGUUGAAUGGGGUUCAUCAUG [A17C U33G G71A C85U G88U U111C A142G U146C] — lower, ≤ -4.2
